Laboratory results reported in patent US20240325486A1 (TUFTS MEDICAL CENTER, published 2024).
Non-standard residues stand in square brackets, D forms with d. No end group written: not given here. Tic = O=C(O)[C@@H]1Cc2ccccc2CN1

B1: C10 lipidated stable chemerin 9 analog (peptide)
peptide: [dY]FLP[dS]QF[dA][Tic]S
modifications: also: C10 lipid tail, linker and attachment not given here
B2: C16:1 lipidated stable chemerin 9 analog (peptide)
peptide: [dY]FLP[dS]QF[dA][Tic]S
modifications: also: C16:1 lipid tail, linker and attachment not given here
B3: C4 lipidated stable chemerin 9 analog (peptide)
peptide: [dY]FLP[dS]QF[dA][Tic]S
modifications: also: C4 lipid tail, linker and attachment not given here
B4: C14:1 lipidated stable chemerin 9 analog (peptide)
peptide: [dY]FLP[dS]QF[dA][Tic]S
modifications: also: C14:1 lipid tail, linker and attachment not given here
B5: Cholesterol lipidated stable chemerin 9 analog (peptide)
peptide: [dY]FLP[dS]QF[dA][Tic]S
modifications: also: cholesterol lipid tail, linker and attachment not given here
B6: s-Stable Chem (soluble stable chemerin peptide) (peptide)
peptide: [dY]FLP[dS]QF[dA][Tic]S
B7: C18:3 lipidated stable chemerin 9 analog (peptide)
peptide: [dY]FLP[dS]QF[dA][Tic]S
modifications: also: C18:3 (linolenic acid) lipid tail, linker and attachment not given here
B8: C18:1 lipidated stable chemerin 9 analog (peptide)
peptide: [dY]FLP[dS]QF[dA][Tic]S
modifications: also: C18:1 lipid tail (which C18:1 acid not given here), linker and attachment not given here
B9: C16 lipidated stable chemerin 9 analog (peptide)
peptide: [dY]FLP[dS]QF[dA][Tic]S
modifications: also: C16 (palmitic acid) lipid tail, linker and attachment not given here

Columns and labels:
[1] = biological target: CMKLR1 (recombinant, species not given); experiment: cell-based or functional assay
[2] = biological target: CMKLR1 (recombinant, species not given); experiment: cell-based or functional assay; remark: listed apart in the source

| Binder | β-Arrestin recruitment, EC50 [1] [nM] | β-Arrestin recruitment, Max Efficacy (% 10 µM s-Stable chem9) [1] [%] | CMKLR1 canonical Gαi signal transduction, EC50 (BSA) (no wash) [2] [nM] | CMKLR1 canonical Gαi signal transduction, EC50 (no wash) [2] [nM] | CMKLR1 canonical Gαi signal transduction, EC50 (BSA) (wash × 3) [2] [nM] | CMKLR1 canonical Gαi signal transduction, EC50 (wash × 3) [2] [nM] |
| --- | --- | --- | --- | --- | --- | --- |
| B1 | 23.1 | 98.3 | 17.8 | 17.8 |  |  |
| B2 | 80.8 | 154 | 29.5 | 12 | 3140 | 42.2 |
| B3 | 223 | 89.7 | 11 | 79.3 |  |  |
| B4 | 51.9 | 124 | 26.2 | 9.3 | 1820 | 100 |
| B5 | 131 | 149 | 108 | 84.5 | 13500 | 445 |
| B6 | 31.9 | 100 | 5.1 | 35.2 |  |  |
| B7 | 181 | 110 | 73.3 | 45.7 |  | 350 |
| B8 | 17.4 | 160 | 12.7 | 4.7 | 2860 | 26.4 |
| B9 | 3.23 | 165 | 6.4 | 2.7 | 520 | 18.6 |
